Like-named read-outs stand apart in the source and are kept apart here.
Key:
PrP 175-189 = PrP 175-189 (Homo sapiens, UniProt P04156)
Aβ28-42 = Aβ28-42 (Homo sapiens, UniProt P05067); assay: Hydrolysis activity against Aβ28-42; assay type: biochemical; conditions: reaction solution II; 1 day, 5 days
[1] = target: soluble Aβ1-42 (Aβ42 authentic sample) (Homo sapiens, UniProt P05067); assay: Hydrolysis activity against soluble Aβ1-42 (authentic sample)
Procedure: (§6) As substrates, Aβ42 in the form of soluble powder (authentic sample, Peptide Institute Inc.) and fragment peptides thereof, namely, Aβ1-20, Aβ11-29, and soluble Aβ28-42, were used. […] In the case of MS analysis, the MS analysis was performed after applying 20 μl of the reaction solution to HPLC and collecting an aliquot of the peak.
Aβ42 was used as a substrate. […] In the case of MS analysis, the MS analysis was performed after applying 20 μl of the reaction solution after the reaction for 7 days to HPLC and collecting an aliquot of the peak.

Aβ1-20 = Aβ1-20 (Homo sapiens, UniProt P05067); assay: Hydrolysis activity against Aβ1-20
Procedure: (§7) Further, any change in activity caused by addition of human serum albumin (HSA, Wako Pure Chemical Industries, Ltd., final concentration 0.025%) also was measured.
as §6
(§8) The present experiment examined activity against Aβ-Fs in Example 7.
(§9) As substrates, the same Aβ1-20 and Aβ11-29 as used in Example 7 were used.

[2] = Autodigestion of the catalytic peptide (HPLC, MS); assay type: biochemical
Procedure: (§1) First, to a buffer solution (Tris-HCl, pH 6.5, final concentration: 100 mmol/l), JAL (final concentration: 0.2 mmol/l) and the fragment peptide of hMMP7 (final concentration 0.05 mmol/l) were added. […] Thereafter, the reaction solution was subjected to HPLC, and the peaks of JAL and the fragment peptide of hMMP7 were examined. HPLC was performed under the following conditions.
Next, the mechanism of autodigestion was examined using various mutants of JAL as hydrolytic peptides. To a reaction solution containing each of the mutants of JAL, a protease inhibitor (trade name: Roche cOmplete, Roche) was added to cause a reaction. One tablet of the protease inhibitor was dissolved in 1 ml of Milli-Q water, and then, 50 μl of the resultant mixture was added to the reaction solution. […] As a result, the autodigestion of all the peptides subjected to the measurement was inhibited (FIG. 16).
Autodigestion in Box B was examined.
JAL-TA9 was reacted in the same manner except that a substrate was not added to examine the autodigestion of JAL-TA9.
The influence of an inhibitor on autodigestion of JAL-TA9 was examined. […] As the protease inhibitor, the serine protease inhibitor AEBSF, which inhibited the autodigestion of JAL 12-22 C19M in the item (6) in Example 4, was used.

Aβ11-29 = Aβ11-29 (Homo sapiens, UniProt P05067); assay: Hydrolysis activity against Aβ11-29; conditions: for hydrolysis activity against Aβ11-29: Example 5 (1), JAL 14-18 and mutants
Procedure: as §7, §6
As a substrate, Aβ11-29, which is a fragment peptide of Aβ42, was used. […] In the case of MS analysis, the MS analysis was performed after applying 20 μl of the reaction solution after the reaction for 6 days to HPLC and collecting an aliquot of the peak.
as §8
The reaction solution V shown in FIG. 52 was incubated at 37° C. for a predetermined time, and autodigestion of ANA-YA4 (YRMI) and cleavage of Aβ11-29 were examined.
A reaction solution VI shown in FIG. 52 was incubated at 37° C. for a predetermined time, and cleavage of Aβ1-20 and Aβ11-29 by ANA-SA5 was examined.
as §9
The present example examined autodigestion and activity against Aβ-F of JAL 12-17 (YKGSGF) and JAL 12-16 (YKGSG). […] As a substrate, the same Aβ11-29 as used in Example 7 was used. The autodigestion was examined by causing the reaction in the same manner, except that the substrate was not added.

SOD1 2-12 = SOD1 2-12 (Homo sapiens, UniProt P00441); assay: Hydrolysis activity against SOD1 2-12; assay type: biochemical; conditions: for hydrolysis activity of JAL mutants: Example 3 (1), substrate SOD1 2-38 or SOD1 2-12
Text: (§2) In JAL 1-22 C19M and JAL 7-22 C19M, Cys residues contained in JAL form S—S bonds during a reaction, and this makes fragment analysis difficult. On this account, JAL 1-22 and JAL 7-22 were modified so as to substitute Cys residues by Met.

Aβ1-19 = Aβ1-19 (Homo sapiens, UniProt P05067); assay: Hydrolysis activity against Aβ1-19
Procedure: The present experiment was conducted to consider an optimal concentration of a hydrolytic peptide relative to a substrate, using JAL 7-22 C19M as the hydrolytic peptide and Aβ1-19 as the substrate. The measurement of activity was performed in the same manner as in the above item (1), except that the incubation time was set to 0 days, 3 days, or 5 days.

SOD1 2-38 = SOD1 2-38 (Homo sapiens, UniProt P00441); assay: Hydrolysis activity against SOD1 2-38; assay type: biochemical; conditions: for hydrolysis activity of JAL mutants: Example 3 (1), substrate SOD1 2-38 or SOD1 2-12
Procedure: As a control, physiological saline (0.9 w/v %) was used instead of the buffer solution. […] Also, it is considered that physiological saline is suitable for storage of JAL before use, for example.
Next, an experiment was conducted to consider an optimal pH for activity using JAL as the hydrolytic peptide and SOD1 2-38 as a substrate.
Metal ions to be added to a reaction solution were Zn^2+, Ca^2+, Co^2+, or combinations thereof. The concentrations of the metal ions in the respective reaction solutions were as follows: 10 mmol/l for Ca^2+; and 5 μmol/l for the other metal ions.
as §2

SOD1 53-70 = SOD1 53-70 (Homo sapiens, UniProt P00441); assay: Hydrolysis activity against SOD1 53-70; assay type: biochemical; conditions: pH 6.5 or 7.5, 3 or 4 days
hMMP7 1-42 = target: T1, hMMP7 1-42 (Homo sapiens, UniProt P09237); assay: Hydrolysis activity against hMMP7 1-42, optimal pH; assay type: biochemical; conditions: 5 days
T1 sequence (P09237 18-42): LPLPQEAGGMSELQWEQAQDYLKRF
Text: The pH of the reaction solution was adjusted using an acetate buffer solution in the pH range from 3.5 to 6.0 and using a Tris-HCl buffer solution in the pH range from 6.5 to 8.0. In either case, the final concentration was set to 150 mmol/l.

hMMP7 26-50 = target: T2, hMMP7 26-50 (Homo sapiens, UniProt P09237); assay: Hydrolysis activity against hMMP7 26-50 (HPLC, MS); assay type: biochemical
T2 construct: host or cells: synthetic peptide
T2 sequence (P09237 26-50 limits assumed): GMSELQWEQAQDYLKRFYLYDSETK
Procedure: (§3) The present example examined whether a synthetic peptide JAL has hydrolysis activity against synthetic peptides derived from the prodomain of human matrix metalloprotease 7 (hMMP7).
(§4) The following JAL was used as a hydrolytic peptide, and hMMP7 42-50 or hMMP7 26-50 was used as a substrate.
as §1
(§5) Then, in HPLC, aliquots of the peaks were collected (each 20 μl), and fragment identification was performed by mass spectrometry (ABI QSTAR Elite system) (referred to as “MS” hereinafter). MS was performed by a flow injection method under the following conditions.

SOD1 12-38 = SOD1 12-38 (Homo sapiens, UniProt P00441); assay: Hydrolysis activity against SOD1 12-38; assay type: biochemical; conditions: pH 6.5 or 7.5, 3 or 4 days
SOD1 115-154 = SOD1 115-154 (Homo sapiens, UniProt P00441); assay: Hydrolysis activity against SOD1 115-154; assay type: biochemical; conditions: pH 6.5 or 7.5, 3 or 4 days
hMMP7 42-50 = target: T3, hMMP7 42-50 (Homo sapiens, UniProt P09237); assay: Hydrolysis activity against hMMP7 42-50 (HPLC, MS); assay type: biochemical
T3 construct: host or cells: synthetic peptide
Procedure: as §3, §4, §1, §5

[3] = reaction solution II, 1 day, 5 days
[4] = Example 9, chimera 0.2 mmol/l, PBS, HSA
[5] = Example 14, peptide 0.2 mmol/l, PBS, HSA
[6] = JAL 0.2 mmol/l, substrate 0.05 mmol/l, Tris-HCl pH 6.5, 37° C., 14 days, HPLC

SOD1 2-38, sequence (P00441 2-38 limits assumed): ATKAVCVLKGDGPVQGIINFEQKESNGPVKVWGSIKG
SOD1 115-154, sequence (P00441 115-154): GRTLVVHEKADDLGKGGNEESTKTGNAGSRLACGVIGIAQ
SOD1 12-38, sequence (P00441 12-38 limits assumed): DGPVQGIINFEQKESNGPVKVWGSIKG

YPEKPLKGSGFRCVHI [Tob2 7-22]
hydrolysis activity against PrP 175-189 (PrP 175-189): exhibited activity | hydrolysis activity against PrP 175-189 (PrP 175-189; Cu2+ further added to HSA): exhibited activity

FPEKPCKGSGYRCIRI [BTG1 7-22]
hydrolysis activity against PrP 175-189 (PrP 175-189): exhibited activity

SKGQAYRMI [ANA-TA9]
cleavage of Aβ-Fs (Aβ28-42): could cleave all the Aβ-Fs | cleavage of Aβ42 ([1]; authentic sample Aβ42, reaction solution III): could cleave Aβ42 | cleavage of Aβ-Fs (Aβ1-20; [3]): could cleave all the Aβ-Fs | autodigestion ([2]; reaction solution I, 37° C.): autodigestion of ANA-TA9 was observed | autodigestion in presence of protease inhibitor ([2]; reaction solution IV, 6 hours): inhibited by the protease inhibitor | cleavage of Aβ-Fs (Aβ11-29; [3]): could cleave all the Aβ-Fs

FVIFLDVKHFSPEDLTVK-AA-YKGSGFRMI (FVIFLDVKHFSPEDLTVKAAYKGSGFRMI) [chimera peptide]
degradation of Aβ42 (HPLC) [1, 4]: degraded Aβ4211-29 from Day 1 | degradation of Aβ11-29 (HPLC) (Aβ11-29; [4]): degraded Aβ11-29

HSDCPSKGQAFRCIRI [BTG4 7-22]
hydrolysis activity against PrP 175-189 (PrP 175-189): exhibited activity

GSGHR
hydrolysis activity against Aβ11-29 (Aβ11-29): strong activity

WIDPFEVSYQIGE [Box B Tob1 8-20]
cleavage sites in Aβ-Fs (MS) (Aβ1-20; Example 14): cleaved at a plurality of sites | degradation of Aβ-Fs (HPLC) (Aβ1-20; [5]): degraded Aβ-Fs | autodigestion ([2]; Example 6, HSA added, 5 days): fragments suggesting the occurrence of autodigestion were observed | cleavage sites in Aβ-Fs (MS) (Aβ11-29; Example 14): cleaved at a plurality of sites | degradation of Aβ-Fs (HPLC) (Aβ11-29; [5]): degraded Aβ-Fs

KYEGHWYPEKPYKGSGFRMIHI [JAL 1-22 C19M]
hydrolysis activity of JAL mutants (SOD1 2-12): exhibited hydrolysis activity | hydrolysis activity against Aβ1-19 (Aβ1-19; CH3OH or CH3CN 10%, 3 or 5 days): did not exhibit activity | hydrolysis activity against Aβ1-19 (Aβ1-19; DMSO 10%, 3 or 5 days): exhibited activity | hydrolysis activity of JAL mutants (SOD1 2-38): exhibited hydrolysis activity

KYEGHWYPEKPYKGSGFRCIHI [JAL]
hydrolysis activity against SOD1 53-70 (SOD1 53-70): strong activity | cleavage sites, fragment identification by MS (SOD1 2-12): a plurality of sites indicated with arrows were cleaved | hydrolysis activity against SOD1 2-12 (SOD1 2-12; pH 6.5 or 7.5, 3 or 4 days): has activity | hydrolysis activity against hMMP7 1-42 (hMMP7 1-42; pH 3.5 to 6.0, acetate buffer 150 mmol/l): exhibited activity | hydrolysis activity against hMMP7 1-42 (hMMP7 1-42; pH 6.5 to 8.0, Tris-HCl 150 mmol/l): the results obtained were the same as that obtained after a lapse of 0 days from the start of the reaction | cleavage of substrate, fragment identification by MS (hMMP7 26-50; 16 days): cleaved at a plurality of sites | hydrolysis activity against hMMP7 26-50 (hMMP7 26-50; [6]): has activity | cleavage sites, fragment identification by MS (SOD1 2-38): a plurality of sites indicated with arrows were cleaved | hydrolysis activity against SOD1 2-38 (SOD1 2-38; Tris buffer solution at various concentrations, 1 or 4 days): exhibited activity regardless of the concentration of the Tris buffer solution | hydrolysis activity against SOD1 2-38 (SOD1 2-38; assay buffer solution (50 mmol/l Tris-HCl pH 7.5, NaCl, Ca, Zn, Briji35, NaN3) vs Tris buffer pH 6.5, 0, 1, 3 days): cleavage by JAL was observed earlier | hydrolysis activity against SOD1 2-38 (SOD1 2-38; only Milli-Q water (0 mmol/l Tris)): did not exhibit activity | hydrolysis activity against SOD1 2-38 (SOD1 2-38; pH 6.5 or 7.5, 3 or 4 days): strong activity | hydrolysis activity against SOD1 2-38 (SOD1 2-38; pH 6.5 to 8.0 in increments of 0.5, 1 day): exhibited activity at all the pH values | hydrolysis activity against SOD1 2-38 (SOD1 2-38; physiological saline (0.9 w/v %) instead of buffer): did not exhibit activity | hydrolysis activity against SOD1 2-38 (SOD1 2-38; with or without Zn2+, Ca2+, Co2+, 1 day): exhibited activity regardless of the presence or absence of the metals | hydrolysis activity against SOD1 12-38 (SOD1 12-38): has activity | hydrolysis activity against SOD1 115-154 (SOD1 115-154): did not exhibit activity | hydrolysis activity against Aβ1-20 (Aβ1-20; Example 3 (2), (6)): has activity | hydrolysis activity against Aβ1-20 (Aβ1-20; PBS (pH 7.4), 3 or 5 days): exhibited activity | hydrolysis activity against Aβ1-20 (Aβ1-20; phosphate buffer solution, 3 or 5 days): did not exhibit activity | cleavage of substrate, fragment identification by MS (hMMP7 42-50; 16 days): cleaved at a plurality of sites | hydrolysis activity against hMMP7 42-50 (hMMP7 42-50; [6]): has activity | autodigestion ([2]; Tris-HCl pH 6.5, 37° C., 14 days, with hMMP7 fragment): autodigestion of JAL occurred

YKGSG [JAL 12-16]
autodigestion ([2]; Example 15, substrate not added): digested themselves | degradation of Aβ-F (Aβ11-29) (Aβ11-29; Example 15, peptide 0.2 mmol/l, PBS, HSA): degraded Aβ-F

YPEKPYKGSGFRCIHI [JAL 7-22]
hydrolysis activity of JAL mutants (SOD1 2-12): exhibited hydrolysis activity | hydrolysis activity against Aβ1-19 (Aβ1-19; high peptide concentration): lowered | hydrolysis activity against Aβ1-19 (Aβ1-19; substrate:peptide 1:1 (0.05 mmol/l) and 1:4 (0.2 mmol/l), 3 or 5 days): strong activity | hydrolysis activity of JAL mutants (SOD1 2-38): exhibited hydrolysis activity

YPEKPSKGQAYRCIRV [BTG3 7-22]
hydrolysis activity against PrP 175-189 (PrP 175-189): exhibited activity | hydrolysis activity against PrP 175-189 (PrP 175-189; Cu2+ further added to HSA): exhibited activity

YKGSGFR [JAL (Tob1) 12-18]
hydrolysis activity against Aβ1-20 (Aβ1-20; Example 3 (2), (6)): exhibited activity

GSGQR
hydrolysis activity against Aβ11-29 (Aβ11-29): strong activity
